This note sets out measurements from patent US5736356A, “Transglutaminase originating from Crassostrea gigas” (Ajinomoto Co., Inc., priority 1994, dated 1998).

Format in all cases: biochemical
Data set [1] concerns methylated casein and monodansylcadaverine. The experiment in a line: Transglutaminase activity of crushed cell supernatant of transformed Escherichia coli (pCGTG4E). The settings on record: cultivation temp. 26° C.; control: 1.2 μg protein. The source says: Then the transglutaminase activity of the crude extract was investigated by an activity-detection method which made use of an increase in the intensity of fluorescent light (the fluorescent intensity observed at 480 nm while exciting with the light rays of 350 nm) due to the linkage of monodansylcadaverine to methylated casein as an indication. This activity-detection method is the method disclosed in Nippon Suisan Gakkaishi, 1991, 57, pp. 1203-1210 which is slightly modified. More specifically, 20 μl of each crude extract was added to 2 ml of a solution comprising 50 mM Tris-HCl buffer (pH 8.5), 1 mg/ml methylated casein, 15 μM monodansylcadaverine and 10 mM calcium chloride, followed by stirring and keeping warm at 37° C. for 20 minutes. After the reaction, 100 μl of 500 mM EDTA solution was added to the reaction system and each reaction solution was inspected for the intensity of emitted fluorescent light using a fluorophotometer (Shimadzu RF-1500, available from Shimadzu Corporation).
The colony of the transformant (FERM BP-4962) thus obtained was inoculated on 50 ml of LB culture medium (comprising 10 g/l of trypton, 5 g/l of yeast extract and 10 g/l of NaCl (pH 7.0)) supplemented with 50 mg/l of ampicillin and 10 mM of IPTG contained in a Sakaguchi flask, followed by cultivation at 26° C. for 21 hours and collection of the bacterial cells from the culture medium. […]

Data set [2] has the same test system. The experiment in a line: Transglutaminase activity of yeast crushed cell extract while changing the NaCl concentration. Conditions: control: 1.2 μg protein. The text has this: The crushed cell extract of the foregoing Saccharomyces cerevisiae INVSC2/pCGTG4S AJ14697 (FERM BP-4964) was inspected for the transglutaminase activity while changing the NaCl concentration in the reaction solution by way of comparison (Table 7).

Data set [3] deals with dimethylated casein and monodansylcadaverine. The experiment in a line: Effect of NaCl and Ca2+ on enzyme activity. Conditions: increasing NaCl concentration.
The test system of data set [4] is methylated casein and monodansylcadaverine. The experiment in a line: Transglutaminase activity of crushed cell extract of transformed Saccharomyces cerevisiae. The settings on record: 0.35 ml supernatant, GAL1 induced; control: 1.2 μg protein.
Method: Then the transglutaminase activity of the crude extract was investigated by an activity-detection method which made use of an increase in the intensity of fluorescent light (the fluorescent intensity observed at 480 nm while exciting with the light rays of 350 nm) due to the linkage of monodansylcadaverine to methylated casein as an indication. […] More specifically, 20 μl of each crude extract was added to 2 ml of a solution comprising 50 mM Tris-HCl buffer (pH 8.5), 1 mg/ml methylated casein, 15 μM monodansylcadaverine and 10 mM calcium chloride, followed by stirring and keeping warm at 37° C. for 20 minutes. After the reaction, 100 μl of 500 mM EDTA solution was added to the reaction system and each reaction solution was inspected for the intensity of emitted fluorescent light using a fluorophotometer (Shimadzu RF-1500, available from Shimadzu Corporation).
The transformant was first inoculated on 50 ml of a glucose synthesis minimum medium (prepared by adding 2% glucose and 50 mg/ml of histidine to the foregoing synthesis minimum medium) contained in a Sakaguchi flask and cultivated at 30° C. for 24 hours by shaking culture to increase the number of the cells. […]

B1: TGase of Cavia porcellus: TGase originated from Cavia porcellus (available from Takara Co., Ltd.), used as control (protein)
chain: AEDLILERCDLQLEVNGRDHRTADLCRERLVLRRGQPFWLTLHFEGRGYEAGVDTLTFNAVTGPDPSEEAGTMARFSLSSAVEGGTWSASAVDQQDSTVSLLLSTPADAPIGLYRLSLEASTGYQGSSFVLGHFILLYNPRCPADAVYMDSDQERQEYVLTQQGFIYQGSAKFINGIPWNFGQFEDGILDICLMLLDTNPKFLKNAGQDCSRRSRPVYVGRVVSAMVNCNDDQGVLQGRWDNNYSDGVSPMSWIGSVDILRRWKDYGCQRVKYGQCWVFAAVACTVLRCLGIPTRVVTNFNSAHDQNSNLLIEYFRNESGEIEGNKSEMIWNFHCWVESWMTRPDLEPGYEGWQALDPTPQEKSEGTYCCGPVPVRAIKEGHLNVKYDAPFVFAEVNADVVNWIRQKDGSLRKSINHLVVGLKISTKSVGRDEREDITHTYKYPEGSEEEREAFVRANHLNKLATKEEAQEETGVAMRIRVGQNMTMGSDFDIFAYITNGTAESHECQLLLCARIVSYNGVLGPVCSTNDLLNLTLDPFSENSIPLHILYEKYGDYLTESNLIKVRGLLIEPAANSYVLAERDIYLENPEIKIRVLGEPKQNRKLIAEVSLKNPLPVPLLGCIFTVEGAGLTKDQKSVEVPDPVEAGEQAKVRVDLLPTEVGLHKLVVNFECDKLKAVKGYRNVIIGPA
Take B1: the “Increase in Fluorescent Intensity” value in data set [1] came out at 4.3; in data set [2] it was 3.5; in data set [4] it was 3.4. In data set [3], the “effect of NaCl concentration on enzyme activity (in words)” value was “did not show any increase”.
